Square brackets hold non-standard residues; d marks the D form. Ends that are not written are not given here. * marks the point of attachment. 2‑(indol-3-yl)ethylcarbamoyl = O=C(NCCc1c[nH]c2ccccc12)*; Arg(Me) = CNC(=N)NCCC[C@H](N)C(=O)O; d3Pal = N[C@H](Cc1cccnc1)C(=O)O; Cha = N[C@@H](CC1CCCCC1)C(=O)O; azaGly = NNC(=O)O
B1: Compound No. 204: [D-Tyr1, Ala7, Arg(Me)9]MS10 (peptide)
peptide: [dY]NWNSFAL[Arg(Me)]F-NH2
modifications: N-terminus assumed
SMILES: CNC(=N)NCCC[C@H](NC(=O)[C@H](CC(C)C)NC(=O)[C@H](C)NC(=O)[C@H](Cc1ccccc1)NC(=O)[C@H](CO)NC(=O)[C@H](CC(N)=O)NC(=O)[C@H](Cc1c[nH]c2ccccc12)NC(=O)[C@H](CC(N)=O)NC(=O)[C@H](N)Cc1ccc(O)cc1)C(=O)N[C@@H](Cc1ccccc1)C(N)=O
notes: printed structure is the same as that of Compound No. 173
B2: Compound No. 212: [D-Tyr1,Ala5,Arg(Me)9]MS10 (peptide)
peptide: [dY]NWNAFGL[Arg(Me)]F-NH2
modifications: N-terminus assumed
SMILES: CNC(=N)NCCC[C@H](NC(=O)[C@H](CC(C)C)NC(=O)CNC(=O)[C@H](Cc1ccccc1)NC(=O)[C@H](C)NC(=O)[C@H](CC(N)=O)NC(=O)[C@H](Cc1c[nH]c2ccccc12)NC(=O)[C@H](CC(N)=O)NC(=O)[C@H](N)Cc1ccc(O)cc1)C(=O)N[C@@H](Cc1ccccc1)C(N)=O
B3: Compound No. 210: [D-Tyr1,Ala4,Arg(Me)9]MS10 (peptide)
peptide: [dY]NWASFGL[Arg(Me)]F-NH2
modifications: N-terminus assumed
SMILES: CNC(=N)NCCC[C@H](NC(=O)[C@H](CC(C)C)NC(=O)CNC(=O)[C@H](Cc1ccccc1)NC(=O)[C@H](CO)NC(=O)[C@H](C)NC(=O)[C@H](Cc1c[nH]c2ccccc12)NC(=O)[C@H](CC(N)=O)NC(=O)[C@H](N)Cc1ccc(O)cc1)C(=O)N[C@@H](Cc1ccccc1)C(N)=O
B4: Compound No. 234: [D-Tyr1,Val3,AzaGly7,Arg(Me)9]MS10 (peptide)
peptide: [dY]NVNSF[azaGly]L[Arg(Me)]F-NH2
modifications: N-terminus assumed
SMILES: CNC(=N)NCCC[C@H](NC(=O)[C@H](CC(C)C)NC(=O)NNC(=O)[C@H](Cc1ccccc1)NC(=O)[C@H](CO)NC(=O)[C@H](CC(N)=O)NC(=O)[C@@H](NC(=O)[C@H](CC(N)=O)NC(=O)[C@H](N)Cc1ccc(O)cc1)C(C)C)C(=O)N[C@@H](Cc1ccccc1)C(N)=O
B5: Compound No. 214: [D-Tyr1,Gln2,Arg(Me)9]MS10 (peptide)
peptide: [dY]QWNSFGL[Arg(Me)]F-NH2
modifications: N-terminus assumed
SMILES: CNC(=N)NCCC[C@H](NC(=O)[C@H](CC(C)C)NC(=O)CNC(=O)[C@H](Cc1ccccc1)NC(=O)[C@H](CO)NC(=O)[C@H](CC(N)=O)NC(=O)[C@H](Cc1c[nH]c2ccccc12)NC(=O)[C@H](CCC(N)=O)NC(=O)[C@H](N)Cc1ccc(O)cc1)C(=O)N[C@@H](Cc1ccccc1)C(N)=O
B6: Compound No. 229: [D-Tyr1,Val3,Arg(Me)9]MS10 (peptide)
peptide: [dY]NVNSFGL[Arg(Me)]F-NH2
modifications: N-terminus assumed
SMILES: CNC(=N)NCCC[C@H](NC(=O)[C@H](CC(C)C)NC(=O)CNC(=O)[C@H](Cc1ccccc1)NC(=O)[C@H](CO)NC(=O)[C@H](CC(N)=O)NC(=O)[C@@H](NC(=O)[C@H](CC(N)=O)NC(=O)[C@H](N)Cc1ccc(O)cc1)C(C)C)C(=O)N[C@@H](Cc1ccccc1)C(N)=O
B7: Compound No. 211: [D-Tyr1,Thr5,Arg(Me)9]MS10 (peptide)
peptide: [dY]NWNTFGL[Arg(Me)]F-NH2
modifications: N-terminus assumed
SMILES: CNC(=N)NCCC[C@H](NC(=O)[C@H](CC(C)C)NC(=O)CNC(=O)[C@H](Cc1ccccc1)NC(=O)[C@@H](NC(=O)[C@H](CC(N)=O)NC(=O)[C@H](Cc1c[nH]c2ccccc12)NC(=O)[C@H](CC(N)=O)NC(=O)[C@H](N)Cc1ccc(O)cc1)[C@@H](C)O)C(=O)N[C@@H](Cc1ccccc1)C(N)=O
B8: Compound No. 233: [D-Tyr1,Ile3,AzaGly7,Arg(Me)9]MS10 (peptide)
peptide: [dY]NINSF[azaGly]L[Arg(Me)]F-NH2
modifications: N-terminus assumed
SMILES: CC[C@H](C)[C@H](NC(=O)[C@H](CC(N)=O)NC(=O)[C@H](N)Cc1ccc(O)cc1)C(=O)N[C@@H](CC(N)=O)C(=O)N[C@@H](CO)C(=O)N[C@@H](Cc1ccccc1)C(=O)NNC(=O)N[C@@H](CC(C)C)C(=O)N[C@@H](CCCNC(=N)NC)C(=O)N[C@@H](Cc1ccccc1)C(N)=O
B9: Compound No. 205: [D-Tyr1,Thr3,Arg(Me)9]MS10 (peptide)
peptide: [dY]NTNSFGL[Arg(Me)]F-NH2
modifications: N-terminus assumed
SMILES: CNC(=N)NCCC[C@H](NC(=O)[C@H](CC(C)C)NC(=O)CNC(=O)[C@H](Cc1ccccc1)NC(=O)[C@H](CO)NC(=O)[C@H](CC(N)=O)NC(=O)[C@@H](NC(=O)[C@H](CC(N)=O)NC(=O)[C@H](N)Cc1ccc(O)cc1)[C@@H](C)O)C(=O)N[C@@H](Cc1ccccc1)C(N)=O
B10: Compound No. 215: [D-Tyr1,Thr2,Arg(Me)9]MS10 (peptide)
peptide: [dY]TWNSFGL[Arg(Me)]F-NH2
modifications: N-terminus assumed
SMILES: CNC(=N)NCCC[C@H](NC(=O)[C@H](CC(C)C)NC(=O)CNC(=O)[C@H](Cc1ccccc1)NC(=O)[C@H](CO)NC(=O)[C@H](CC(N)=O)NC(=O)[C@H](Cc1c[nH]c2ccccc12)NC(=O)[C@@H](NC(=O)[C@H](N)Cc1ccc(O)cc1)[C@@H](C)O)C(=O)N[C@@H](Cc1ccccc1)C(N)=O
B11: Compound No. 206: [D-Tyr1,Ile3,Arg(Me)9]MS10 (peptide)
peptide: [dY]NINSFGL[Arg(Me)]F-NH2
modifications: N-terminus assumed
SMILES: CC[C@H](C)[C@H](NC(=O)[C@H](CC(N)=O)NC(=O)[C@H](N)Cc1ccc(O)cc1)C(=O)N[C@@H](CC(N)=O)C(=O)N[C@@H](CO)C(=O)N[C@@H](Cc1ccccc1)C(=O)NCC(=O)N[C@@H](CC(C)C)C(=O)N[C@@H](CCCNC(=N)NC)C(=O)N[C@@H](Cc1ccccc1)C(N)=O
B12: Compound No. 235: [D-Tyr1,Ala3,AzaGly7,Arg(Me)9]MS10 (peptide)
peptide: [dY]NANSF[azaGly]L[Arg(Me)]F-NH2
modifications: N-terminus assumed
SMILES: CNC(=N)NCCC[C@H](NC(=O)[C@H](CC(C)C)NC(=O)NNC(=O)[C@H](Cc1ccccc1)NC(=O)[C@H](CO)NC(=O)[C@H](CC(N)=O)NC(=O)[C@H](C)NC(=O)[C@H](CC(N)=O)NC(=O)[C@H](N)Cc1ccc(O)cc1)C(=O)N[C@@H](Cc1ccccc1)C(N)=O
B13: Compound No. 279: des(1-3)-2-(Indol-3-yl)ethylcarbamoyl-[AzaGly7,Arg(Me)9]MS10 (peptide)
peptide: {2‑(indol-3-yl)ethylcarbamoyl}-NSF[azaGly]L[Arg(Me)]F-NH2
SMILES: CNC(=N)NCCC[C@H](NC(=O)[C@H](CC(C)C)NC(=O)NNC(=O)[C@H](Cc1ccccc1)NC(=O)[C@H](CO)NC(=O)[C@H](CC(N)=O)NC(=O)NCCc1c[nH]c2ccccc12)C(=O)N[C@@H](Cc1ccccc1)C(N)=O
B14: Compound No. 290: [D-Pya(3)1,D-Asn2,Cha3,AzaGly7,Arg(Me)9]MS10 (peptide)
peptide: [d3Pal][dN][Cha]NSF[azaGly]L[Arg(Me)]F-NH2
modifications: N-terminus assumed
SMILES: CNC(=N)NCCC[C@H](NC(=O)[C@H](CC(C)C)NC(=O)NNC(=O)[C@H](Cc1ccccc1)NC(=O)[C@H](CO)NC(=O)[C@H](CC(N)=O)NC(=O)[C@H](CC1CCCCC1)NC(=O)[C@@H](CC(N)=O)NC(=O)[C@H](N)Cc1cccnc1)C(=O)N[C@@H](Cc1ccccc1)C(N)=O

Target: T1, human OT7T175 (metastin receptor) (human, UniProt Q969F8 1-398)
T1 sequence (Q969F8 whole entry L364H): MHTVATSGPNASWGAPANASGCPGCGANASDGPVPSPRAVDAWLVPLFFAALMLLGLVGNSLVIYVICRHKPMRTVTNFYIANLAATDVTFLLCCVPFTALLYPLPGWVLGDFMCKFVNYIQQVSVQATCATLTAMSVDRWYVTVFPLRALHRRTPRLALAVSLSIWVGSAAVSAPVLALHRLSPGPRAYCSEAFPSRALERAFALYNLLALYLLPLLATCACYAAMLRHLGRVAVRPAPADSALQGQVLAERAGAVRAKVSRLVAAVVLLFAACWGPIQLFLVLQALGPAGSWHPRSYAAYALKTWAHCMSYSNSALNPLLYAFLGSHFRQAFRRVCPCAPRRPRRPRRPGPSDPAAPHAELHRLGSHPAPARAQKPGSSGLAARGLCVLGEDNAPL
Assay: cell-based or functional assay

Binder	intracellular Ca ion level-increasing activity (FLIPR)
B1	5 specific activity to metastin (1-54)
B2	10 specific activity to metastin (1-54)
B3	1 specific activity to metastin (1-54)
B4	1 specific activity to metastin (1-54)
B5	10 specific activity to metastin (1-54)
B6	1 specific activity to metastin (1-54)
B7	10 specific activity to metastin (1-54)
B8	1 specific activity to metastin (1-54)
B9	10 specific activity to metastin (1-54)
B10	10 specific activity to metastin (1-54)
B11	10 specific activity to metastin (1-54)
B12	1 specific activity to metastin (1-54)
[dY]NWTSFGL[Arg(Me)]F-NH2 [Compound No. 208: [D-Tyr1,Thr4,Arg(Me)9]MS10]	1 specific activity to metastin (1-54)
[dY]NWNSFGV[Arg(Me)]F-NH2 [Compound No. 213: [D-Tyr1,Val8,Arg(Me)9]MS10]	2 specific activity to metastin (1-54)
[dY][dW]NSF[azaGly]L[Arg(Me)]F-NH2 [Compound No. 242: des(1)-[D-Tyr2,D-Trp3,AzaGly7,Arg(Me)9]MS10]	2 specific activity to metastin (1-54)
[dY]WNSFGL[Arg(Me)]F-NH2 [Compound No. 217: des(1)-[D-Tyr2,Arg(Me)9]MS10]	20 specific activity to metastin (1-54)
[dY]TNSF[azaGly]L[Arg(Me)]F-NH2 [Compound No. 241: des(1)-[D-Tyr2,Thr3,AzaGly7,Arg(Me)9]MS10]	1 specific activity to metastin (1-54)
[dN]WNSFGL[Arg(Me)]F-NH2 [Compound No. 216: des(1)-[D-Asn2,Arg(Me)9]MS10]	1 specific activity to metastin (1-54)
[dY]INSFGL[Arg(Me)]F-NH2 [Compound No. 228: des(1)-[D-Tyr2,Ile3,Arg(Me)9]MS10]	5 specific activity to metastin (1-54)

Target: T1, human OT7T175 (metastin receptor)
Assay: cell-based or functional assay
Remark: another data set of the same source

Binder	intracellular Ca ion level-increasing activity (FLIPR)
B13	5 specific activity to metastin (1-54)
B14	1 specific activity to metastin (1-54)
YNWNSXGLRF (D-Tyr1; Pya(2)6; Arg(Me)9; C-terminal amide) [Compound No. 281: [D-Tyr1,Pya(2)6,Arg(Me)9]MS10]	0.5 specific activity to metastin (1-54)

Target: T1, human OT7T175 (metastin receptor)
Assay: FMAT competition with Cy-5-labeled metastin (40-54), hOT7T175-expressed CHO cells
Experimental: h0T7T175-Expressed CHO cells were cultured in MEM-α medium (nucleic acid-free) containing 10% dialyzed serum. The medium was removed and the adherent cells were washed with PBS. Then, PBS containing 5 mM EDTA was added and the cells were scraped from a flask with a cell scraper. […] To each well of a 96-Well Black Clear Bottom Plate (Applied Biosystems, Inc.), 10 μL of assay buffer containing 1% dimethylsulfoxide was added to examine total binding, 10 μL of 10 μM non-labeled peptide (having the same amino acid sequence as that of the labeled one) solution diluted with assay buffer to examine non-specific binding, and 10 μL of a test compound diluted with assay buffer to examine the binding inhibition activity of the test compound, respectively. Furthermore, 90 μL each of the cell suspension was dispensed to each well. […] The specific binding is a value obtained by subtracting the non-specific binding from the total binding.

Binder	IC50 [nM]
B1	680
B2	36
B3	730
B4	47
B5	390
B6	130
B7	44
B8	23
B9	260
B10	250
B11	85
B12	100
[dY]NWTSFGL[Arg(Me)]F-NH2 [Compound No. 208: [D-Tyr1,Thr4,Arg(Me)9]MS10]	830
[dY]NWNSFGV[Arg(Me)]F-NH2 [Compound No. 213: [D-Tyr1,Val8,Arg(Me)9]MS10]	190
[dY][dW]NSF[azaGly]L[Arg(Me)]F-NH2 [Compound No. 242: des(1)-[D-Tyr2,D-Trp3,AzaGly7,Arg(Me)9]MS10]	70
B13	29
B14	1.4
YNWNSXGLRF (D-Tyr1; Pya(2)6; Arg(Me)9; C-terminal amide) [Compound No. 281: [D-Tyr1,Pya(2)6,Arg(Me)9]MS10]	230
[dY]WNSFGL[Arg(Me)]F-NH2 [Compound No. 217: des(1)-[D-Tyr2,Arg(Me)9]MS10]	250
[dY]TNSF[azaGly]L[Arg(Me)]F-NH2 [Compound No. 241: des(1)-[D-Tyr2,Thr3,AzaGly7,Arg(Me)9]MS10]	56
[dN]WNSFGL[Arg(Me)]F-NH2 [Compound No. 216: des(1)-[D-Asn2,Arg(Me)9]MS10]	700
[dY]INSFGL[Arg(Me)]F-NH2 [Compound No. 228: des(1)-[D-Tyr2,Ile3,Arg(Me)9]MS10]	40

Source: patent US20060241051A1 (Takeda / Millennium, published 2006)
